Source: the supplement of paper PMC10567573

Assay: protein stability index of a GFP-peptide fusion (GPS, HEK-293T) (PSI 1-6); higher = more stable
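Further: lentivirally expressed fusions sorted by FACS into six bins by GFP to DsRed ratio, PSI derived from sequencing read proportions per bin multiplied by bin number.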

For FLGSSFSPVRCGGPGDASPRGCGA, which protein stability index (parent: IOH27052_23, c terminus: a fixed tail appended) is on record?
Its protein stability index is 1.95.

Which protein stability index (parent: IOH27142_36, c terminus: a fixed tail appended) does the source give for KKIFKSHLKSSRNSTSVKKKSSRN here?
Its protein stability index is 3.96.

Which protein stability index (parent: IOH26807_35, c terminus: a fixed tail appended) does the source give for ILLVGYPPFWDEDQHRLYKQIKAG here?
Its protein stability index is 2.33.

With RPRRYVQPPEMIGPMRPEQFSDEV as the protein, how does the protein stability index (parent: IOH27258_3, c terminus: a fixed tail appended) read?
Its protein stability index is 3.67.

Which protein stability index (parent: IOH27062_1, c terminus: a fixed tail appended) does the source give for MTVKPAKAASLARNLAKRRRTYLG here?
The protein stability index was 2.85.

For LLIPKEDGVITASEDRTIRVWLKR, which protein stability index (parent: IOH27506_6, c terminus: a fixed tail appended) is on record?
The protein stability index was 2.04.

With HDPLWRRHCKKYWLISEEEKTQKN as the protein, how does the protein stability index (parent: IOH26934_9, c terminus: a fixed tail appended) read?
Its protein stability index is 2.91.

With ILGKVILWILHLLLECYIQYHHSK as the protein, how does the protein stability index (parent: IOH26789_17, c terminus: a fixed tail appended) read?
The protein stability index was 2.97.

With TFGDHHKDRRFAYGRSDVVVLCFS [RHOBTB1 WT] as the protein, how does the protein stability index (parent: IOH27118_15, c terminus: a fixed tail appended) read?
The protein stability index was 1.99.

Which protein stability index (parent: IOH26584_46, c terminus: a fixed tail appended) does the source give for TLVEAIKEQDGREVDWEYFYGLLF here?
Its protein stability index is 1.91.

For FQEAMTHLQHKLICTRKPEEIRGG, which protein stability index (parent: IOH26845_36, c terminus: a fixed tail appended) is on record?
Its protein stability index is 2.91.

Which protein stability index (parent: IOH27102_108, c terminus: a fixed tail appended) does the source give for QEKLQVLMAEGLLPAVKVFLDWLR here?
The protein stability index was 2.44.

Which protein stability index (parent: IOH26921_28, c terminus: a fixed tail appended) does the source give for YVKAKKSIDKDEEFAGSSPQSSKS here?
The protein stability index was 3.04.

Which protein stability index (parent: IOH27258_4, c terminus: a fixed tail appended) does the source give for QPPEMIGPMRPEQFSDEVEPATPE here?
The protein stability index was 5.04.

With LEAAEVILEHAHRGEQTTSQVSWE as the protein, how does the protein stability index (parent: IOH26591_31, c terminus: a fixed tail appended) read?
Its protein stability index is 4.39.

With FSPDFTLRNTLKSTSEDSLVKQEC as the protein, how does the protein stability index (parent: IOH26921_45, c terminus: a fixed tail appended) read?
The protein stability index was 1.89.

Which protein stability index (parent: IOH26591_36, c terminus: a fixed tail appended) does the source give for LQEPGVFSPTPPQQFQPAGTDQVC here?
Its protein stability index is 3.96.

With FQRAMHDYNQAEMKQRDNCKIRIQ [STX11 WT] as the protein, how does the protein stability index (parent: IOH27407_24, c terminus: a fixed tail appended) read?
The protein stability index was 2.68.

With QRLEEQERRHREEKERRKKQQWEI as the protein, how does the protein stability index (parent: IOH27062_61, c terminus: a fixed tail appended) read?
Its protein stability index is 4.62.

For KLNCDPSRIYKPQTRLKRKQPVRK, which protein stability index (parent: IOH26584_53, c terminus: a fixed tail appended) is on record?
The protein stability index was 3.47.

Which protein stability index (parent: IOH27102_112, c terminus: a fixed tail appended) does the source give for TNPDLIIVCAQSSQSLWNRLSVLL here?
The protein stability index was 2.77.

Which protein stability index (parent: IOH27581_27, c terminus: native) does the source give for SQVSMWDQRWQDHQPLLPITDVP here?
Its protein stability index is 2.45.

Which protein stability index (parent: IOH27431_29, c terminus: a fixed tail appended) does the source give for RALEEVEMKLQKNFLTQRENTIAG here?
The protein stability index was 3.73.

Which protein stability index (parent: IOH27247_70, c terminus: a fixed tail appended) does the source give for IYKKYALQSAAGKDAAKQIAWIKD here?
The protein stability index was 2.16.

With FNYSVGFKDLNESLNALEDQDLDA as the protein, how does the protein stability index (parent: IOH27581_8, c terminus: a fixed tail appended) read?
Its protein stability index is 4.47.

Which protein stability index (parent: IOH27358_17, c terminus: a fixed tail appended) does the source give for LNAELEEKMMQEAEKLKAQGEYSR [CCDC89 WT] here?
Its protein stability index is 4.98.

With KQTIGNSCKACGYRGMLDTHHKLC [EIF5 WT] as the protein, how does the protein stability index (parent: IOH27132_20, c terminus: a fixed tail appended) read?
Its protein stability index is 3.1.

Which protein stability index (parent: IOH26807_20, c terminus: a fixed tail appended) does the source give for CIQQILEAVLHCHQMGVVHRDLKP here?
Its protein stability index is 2.46.

With KLLSVIVWMLMLLLAVPNIILTNQ as the protein, how does the protein stability index (parent: IOH27142_24, c terminus: a fixed tail appended) read?
Its protein stability index is 3.1.

For PPEPLSQVSMWDQRWQDHQPLLPI, which protein stability index (parent: IOH27581_25, c terminus: a fixed tail appended) is on record?
Its protein stability index is 3.15.

For LELKFVSSLRRQFEFSVDSFQIVL, which protein stability index (parent: IOH26845_27, c terminus: a fixed tail appended) is on record?
The protein stability index was 3.08.

Which protein stability index (parent: IOH27102_46, c terminus: a fixed tail appended) does the source give for TRKLSPGKKRCKDIKRLLVNFMYL here?
Its protein stability index is 2.32.

Which protein stability index (parent: IOH27052_40, c terminus: a fixed tail appended) does the source give for INPFTPDSLLLHSSGQCRRRKRTY here?
The protein stability index was 3.35.

With FIPAKTGKDVATQILEGELFDFDL as the protein, how does the protein stability index (parent: IOH27062_49, c terminus: a fixed tail appended) read?
Its protein stability index is 1.77.

Which protein stability index (parent: IOH26934_31, c terminus: a fixed tail appended) does the source give for AGGFQQRQGLKYCLPLTFCIHTGL here?
Its protein stability index is 2.73.

For VDVQTELYLEEIADRIIEVDMECQ, which protein stability index (parent: IOH27062_43, c terminus: a fixed tail appended) is on record?
The protein stability index was 2.16.

Which protein stability index (parent: IOH27247_3, c terminus: a fixed tail appended) does the source give for ITYPPGVKEISDKISKEEMVRRLK here?
Its protein stability index is 3.62.

With FVSIAQSEQESLLQQAQAQFRMAQ as the protein, how does the protein stability index (parent: IOH27102_133, c terminus: a fixed tail appended) read?
The protein stability index was 2.09.

Which protein stability index (parent: IOH26789_18, c terminus: a fixed tail appended) does the source give for LWILHLLLECYIQYHHSKIRNRGY here?
The protein stability index was 2.02.

Which protein stability index (parent: IOH27062_37, c terminus: a fixed tail appended) does the source give for LELQRQREARKRALARKQAQEQLR here?
The protein stability index was 3.77.

Which protein stability index (parent: IOH26934_44, c terminus: a fixed tail appended) does the source give for GGFPIIRDQIFRYVHDPECVATTG here?
The protein stability index was 1.75.

Which protein stability index (parent: IOH27431_3, c terminus: a fixed tail appended) does the source give for TSECPSDKDKSPESHKAKNESWIK here?
Its protein stability index is 3.1.

For FISRTSIPNAASEEGDEDDWASNK, which protein stability index (parent: IOH27052_73, c terminus: a fixed tail appended) is on record?
Its protein stability index is 4.02.

Which protein stability index (parent: IOH26922_10, c terminus: a fixed tail appended) does the source give for YCNFNKYIPRRLEEAAMQKCLVTE [RSAD1 WT] here?
The protein stability index was 2.08.

With FWNIKQMWDTKTLGLRQHHCRKCG as the protein, how does the protein stability index (parent: IOH27506_50, c terminus: a fixed tail appended) read?
The protein stability index was 2.1.

With ADPVLDLPLPPPPPEPLSQVSMWD as the protein, how does the protein stability index (parent: IOH27581_23, c terminus: a fixed tail appended) read?
The protein stability index was 4.59.

Which protein stability index (parent: IOH26934_14, c terminus: a fixed tail appended) does the source give for FIDTYSDVGRYIDHYAAIKKAWDD here?
Its protein stability index is 1.85.

Which protein stability index (parent: IOH26934_79, c terminus: native) does the source give for DEEERRRRVFDVPIRRRRCSRLF here?
Its protein stability index is 2.81.

With LPLPPPPPEPLSQVSMWDQRWQDH as the protein, how does the protein stability index (parent: IOH27581_24, c terminus: a fixed tail appended) read?
The protein stability index was 3.74.

Which protein stability index (parent: IOH27062_2, c terminus: a fixed tail appended) does the source give for KAASLARNLAKRRRTYLGGAAGRS here?
Its protein stability index is 2.6.

With GHSHHSHHGHPSHQSHSLPNRRH as the protein, how does the protein stability index (parent: IOH27431_35, c terminus: native) read?
The protein stability index was 2.57.

For SAIYKWITDNFCYFRHADPTWQNS [FOXJ1 WT], which protein stability index (parent: IOH27374_25, c terminus: a fixed tail appended) is on record?
The protein stability index was 2.69.

With MLWVQRKRRRKETSECPSDKDKSP as the protein, how does the protein stability index (parent: IOH27431_1, c terminus: a fixed tail appended) read?
The protein stability index was 2.93.
